Kd, koff and kon data for twelve molecules are collected here from patent US20240417476A1.

As usually defined, the Kd is a measure of binding affinity in units of concentration. By koff is commonly meant a measure of how fast the partners let go of each other. What is called kon is the second-order rate constant of association.

B1: aNRP2-401v5 (antibody, V domains shown)
VH: EVQLVESGGGLVQPGGSLRLSCAASGFTFSDYGMHWVRQAPGKGLEWVSTISRDINTVYYADTVKGRFTISRDNAKNSLYLQMNSLRAEDTAVYYCARGGYTDYWGQGTTVTVSS
VL: DIVMTQTPLSLSVTPGQPASISCRSSQSLVHSNGNTYLYWYLQKPGQSPQLLIYKVSNRFSGVPDRFSGSGSGTDFTLKISRVEAEDVGVYYCSQSTHVLTFGGGTKVEIK
B2: aNRP2-401v6 (antibody, V domains shown)
VH: B1 VH
VL: B1 VL with S94A, V99P
B3: aNRP2-401v7 (antibody, V domains shown)
VH: B1 VH with D54S
VL: B1 VL with S94A, V99P
B4: aNRP2-401v8 (antibody, V domains shown)
VH: B1 VH with N56Q
VL: B1 VL with S94A, V99P
B5: aNRP2-37v2 (antibody, V domains shown)
VH: DVKLVESGEGLVKPGGSLKLSCAASGFTFSDYALSWVRQTPEKRLEWVAYISSGGDYIYYADTVRGRFTISRDNARNTLYLQMSSLQSEDTAIYYCTRGGQDDYWGQGTTLTVSS
VL: DVVMTQTPLSLPVILGDQASISCRSSQSLVHSNGNTYLQWYLQKPGQSPKLLIYKVSNRFSGVPDRFSGSGSGTDFTLKISRVEAEDLGVYFCSQSTHVPFTFGSGTNLEIK
B6: aNRP2-403v2 (antibody, V domains shown)
VH: QVQLQQPGAELVKPGASVKLSCKASGYTFTSYWMHWVKQRPGRGLEWIGRIDPNSGDTKYNEKFKSKATLTVDKPSSTAYMQVSSLTSEDSAVYYCARSYDYALEYWGQGTSVTVSS
VL: B5 VL with I14S, Q39H, Y41F, K50N, S96N, H98R, F101R, S105G, N108K
B7: aNRP2-401v2 (antibody, V domains shown)
VH: EVQLQESGGGLVKPGGSLKLSCAASGFTFSDYGMHWVRQAPEKGLEWVATISRDINTVYYADTVKGRFTISRDNAKNTLFLQVTSLRSEDTAMYYCTRGGYTDYWGQGTTLTVSS
VL: B1 VL with S12P, T14S, P15L, Q17D, P18Q, K44R, Q50K, V88L, Y92F, V108L
B8: aNRP2-400v2 (antibody, V domains shown)
VH: EVQLQESGAELARPGASVKLSCKASGYTFRSYGISWVKQRTGQGLEWIGEIYPRSGNTYYDENFKGRATLTADKSSSTAFMELRSLTSEDSAVYFCARSSITAVVAIPYYYAMDYWGQGTSVTVSS
VL: DIQMTQTTSSLSASLGDRVTISCSASQGISNYLNWYQQKPDGSVKLLIYYTSSLHSGVPSRFSGSGSGTDYSLTISNLEPEDIATYYCQQYSKLPHTFGGGTKLELK
B9: aNRP2-407v2 (antibody, V domains shown)
VH: EVQLQQSGPELVKPGASVTISCKASGYSFTGYYMHWVKQSHVKSLEWIGRINPYNGATSYSQNFKDKASLTIDKSSSTAYMELHSLTSEDSAVYYCAREETTAPFTYWGQGTLVTVSA
VL: DIVMSQSPSSLAVSVGEKVTMSCKSSQSLLYSSNQKNYLAWYQQKPGQSPKLLIYWASTRESGVPDRFTGSGSGTDFTLTISSVQAEDLAVYFCQHYYSYPPTFGGGTKLEIK
B10: aNRP2-405v2 (antibody, V domains shown)
VH: EVMLVESGGGLVKPGGSLKLSCAASGFTFRRYAMSWVRQTPEKGLEWVATITSGGSYTYYLDSVKGRITISRDNAKNTLYLQMSSLRSEDTAMYYCARHGIYGGFDYWGQGTTLTVSS
VL: DVLMTQTPLSLPVSLGDQASISCRSSQSIVHSDGNTYLEWYLQKPGQSPNLLIYKVSNRFSGVPDRFSGSGSGTDFTLKISRVEAEDLGIYYCFQGSHVPFTFGSGTKLEIK
B11: aNRP2-408v2 (antibody, V domains shown)
VH: EVKLVESGGGLVKPGGSLKLSCAASGFTFSSYAMSWVRQTPEKRLEWVASISRGSITYYPDSVKGRFTISRDNAGNILYLQMSSLRSEDTAMYYCAREYYYAMDYWGQGTSVTVSS
VL: DIQMTQSPSSLSASLGERVSLTCRASQDIGSRLNWLQQEPDGTIKRLIYATSSLDSGVPKRFSGSRSGSDYSLTISSLESEDFVDYYCLQYASSPYTFGGGTKLEIK
B12: aNRP2-409v3 (antibody, V domains shown)
VH: EVQFVETGGGLVQPKGSLKLSCAASGFTFNTNAMNWVRQAPGKGLEWVARIRTKSNNYATYYADSVKDRFTISRDDSQNILYLQMNNLKTEDTAMYYCVTLDSSGYVWFAYWGQGTLVTVSA
VL: B11 VL

Changes are numbered by the printed parent chain.

In the first test the target is recombinant NRP2 isoform a (human) (UniProt O60462). In words: BLI (Octet RED96e). (In general: In BLI a coated tip is dipped into the sample, and binding shifts an interference pattern.)
In the case of B1, the Kd was found to be 0.391 nM, the koff was found to be 0.000293 s⁻¹ and the kon was determined as 748000 M⁻¹ s⁻¹.

For B2, the Kd turned out to be 0.162 nM, the koff worked out at 0.000162 s⁻¹ and the kon came out at 999000 M⁻¹ s⁻¹.

As to B3, the Kd amounted to 0.141 nM, the off-rate (koff) was found to be 0.000173 s⁻¹ and the kon is 1.23e+06 M⁻¹ s⁻¹.

Consider B4, for which the Kd came out at 0.0989 nM, the koff was found to be 0.00012 s⁻¹ and the kon came out at 1.21e+06 M⁻¹ s⁻¹.

The target is the same in another test. In words: BLI, antibody captured by anti-mouse kappa, NRP2a titrated 0.62-450 nM, 1:1 fit.
As for B5, the Kd is 0.767 nM.

Regarding B6, the dissociation constant Kd was 1.4 nM.

With B7, the Kd was 0.136 nM.

For B8, the Kd turned out to be 0.453 nM.

Take B9: the Kd stood at 0.352 nM.

In the case of B10, the Kd came to 0.48 nM.

Consider B11, for which the Kd amounted to 2.1 nM.

Consider B12, for which the Kd worked out at 2.23 nM.
